Laboratory results reported in paper PMC3972249.

Substrate: Nc1ncnc2c1ncn2[C@@H]1O[C@H](COP(=O)(O)OP(=O)(O)OP(=O)(O)O)[C@@H](O)[C@H]1O
Assay: KM from ATP titration in ATP:PPi exchange assay
Assay type: biochemical, Homo sapiens

Row | Protein | Km [µM]
1 | NEDD8-activating enzyme (NAE), catalytic subunit UBA3 I310N (Homo sapiens; I310N) (protein, recombinant human UBA3 (isoform 1) in NAE complex; with NAEα (APPBP1); NEDD8) ADGEEPEKKRRRIEELLAEKMAVDGGCGDTGDWEGRWNHVKKFLERSGPFTHPDFEPSTESLQFLLDTCKVLVIGAGGLGCELLKNLALSGFRQIHVIDMDTIDVSNLNRQFLFRPKDIGRPKAEVAAEFLNDRVPNCNVVPHFNKIQDFNDTFYRQFHIIVCGLDSIIARRWINGMLISLLNYEDGVLDPSSIVPLIDGGTEGFKGNARVILPGMTACIECTLELYPPQVNFPMCTIASMPRLPEHCIEYVRMLQWPKEQPFGEGVPLDGDDPEHIQWIFQKSLERASQYNIRGVTYRLTQGVVKRINPAVASTNAVIAAVCATEVFKIATSAYIPLNNYLVFNDVDGLYTYTFEAERKENCPACSQLPQNIQFSPSAKLQEVLDYLTNSASLQMKSPAITATLEGKNRTLYLQSVTSIEERTRPNLSKTLKELGLVDGQELAVADVTTPQTVLFKLHFTS | 20
2 | NEDD8-activating enzyme (NAE), catalytic subunit UBA3 (NAEβ) (Homo sapiens) (protein, recombinant human UBA3 (isoform 1) in NAE complex; with NAEα (APPBP1); NEDD8) ADGEEPEKKRRRIEELLAEKMAVDGGCGDTGDWEGRWNHVKKFLERSGPFTHPDFEPSTESLQFLLDTCKVLVIGAGGLGCELLKNLALSGFRQIHVIDMDTIDVSNLNRQFLFRPKDIGRPKAEVAAEFLNDRVPNCNVVPHFNKIQDFNDTFYRQFHIIVCGLDSIIARRWINGMLISLLNYEDGVLDPSSIVPLIDGGTEGFKGNARVILPGMTACIECTLELYPPQVNFPMCTIASMPRLPEHCIEYVRMLQWPKEQPFGEGVPLDGDDPEHIQWIFQKSLERASQYNIRGVTYRLTQGVVKRIIPAVASTNAVIAAVCATEVFKIATSAYIPLNNYLVFNDVDGLYTYTFEAERKENCPACSQLPQNIQFSPSAKLQEVLDYLTNSASLQMKSPAITATLEGKNRTLYLQSVTSIEERTRPNLSKTLKELGLVDGQELAVADVTTPQTVLFKLHFTS | 80
